{"source": "patent US7547662", "about": "(KIMBERLY CLARK WORLDWIDE, dated 2009)", "binders": {"B1": {"name": "Loop i variant from computer search (parental binding agent with loop i ITAVCHK, SEQ ID NO:35) (designed binder)", "chain": "MDVQLQASGGGSVQAGGSLRLSCAASITAVCHKCAGWFRQAPGKEREGVAAINAGAAGTSYADSVKGRFTISQLAGAANVYLLMNSLEPEDTAIYYCAAGHAGAAGAATCGHGLSTAGAAGAPWGQGTQVTVSS", "notes": "The protein was then made, expressed and purified, and tested by ITC; also called Loop i Variant Computer; computer-generated loop i variant; not shown: C-terminal hexa-histidine tag added by the vector construct"}, "B2": {"name": "Loop i variant from library screening (parental binding agent with loop i RYLRYPS, SEQ ID NO:33) (designed binder)", "chain": "B1 chain with I27R, T28Y, A29L, V30R, C31Y, H32P, K33S", "notes": "The clone came from a library in which loops i to v were randomised; also called Loop i variant Screening; Biological Screen; not shown: C-terminal hexa-histidine tag added by the vector construct"}, "B3": {"name": "Parental binding agent (generic binding agent, SEQ ID NO:4, Ala/Gly loops) (designed binder)", "chain": "B1 chain with I27A, T28G, V30A, C31G, H32A, K33A", "notes": "Camelid VHH-derived beta barrel scaffold, all five loops Ala/Gly; Expressed in E. coli as a monomeric C-terminal His-Tag fusion; not shown: C-terminal hexa-histidine tag added by the vector construct"}}, "key": {"[1]": {"molecular_target": "T1, Bovine trypsin (Sigma Chemical Co.) (bovine, UniProt P00760 24-246)", "T1 construct": "Unlabelled in ITC; Oregon Green labelled in the library screening assay; also called bovine pancreatic trypsin", "T1 sequence (P00760 24-246)": "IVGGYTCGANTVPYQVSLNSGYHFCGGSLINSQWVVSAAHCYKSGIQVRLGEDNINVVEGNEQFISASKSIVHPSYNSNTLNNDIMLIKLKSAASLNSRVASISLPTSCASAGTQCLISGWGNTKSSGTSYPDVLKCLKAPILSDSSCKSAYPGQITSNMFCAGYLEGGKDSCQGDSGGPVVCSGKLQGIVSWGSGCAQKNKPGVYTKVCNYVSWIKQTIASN", "test": "ITC, binding agent injected into bovine trypsin, 293 K", "procedure": "(§1) Isothermal titration calorimetry (ITC) was performed with a VP-ITC instrument from MicroCal, Inc. Titrations were carried out by injecting 5 µL of a binding agent (at concentration ranges from 0.5 mM to 1.0 mM) into the 1.4 mL stirred reaction cell. Bovine trypsin (Sigma Chemical Co.) ranged in concentration from 10 to 30 μM in the cell. Both the inhibitor and the enzyme were in 20 mM sodium cacodylate (pH 6.9), 40 mM NaCl. Titrations were conducted at 20° C. Typical experimental conditions for the titrations were a 10 second injection period followed by a 240 second delay between injections for a total of 40 injections. Blank titrations of binding agent into buffer were performed in order to correct for heats of dilution and mixing.\n(§2) The ability of three binding agents (SEQ ID NO:4, SEQ ID NO:33 and 35) was tested to ascertain whether they could effectively bind bovine trypsin. Binding was measured by isothermal titration calorimetry (ITC).\nFigure 9: FIG. 9 is a graph illustrating the binding between the computer-generated loop i variant and bovine pancreatic trypsin as analyzed by ITC analysis. Binding reagents and trypsin were dialyzed into 20 mM sodium cacodylate (pH 6.9), 40 mM NaCl. The binding reagent was at a concentration of 1 mM and trypsin was used in the calorimeter cell at a concentration of 20 μM. The temperature was maintained at 20° C. 40 injections of 5 μL each were employed with a 240 second re-equilibrium time between injections."}, "[2]": {"molecular_target": "T1, Bovine trypsin (Sigma Chemical Co.)", "test": "ITC, binding agent injected into bovine trypsin in the cell, 20 C", "procedure": "as §1, §2"}}, "note": "Numbering of substitutions follows the chain as printed.", "data": [{"binder": "B1", "values": [{"measurement": "Ka", "setting": "[1]", "result": 622000, "unit": "M⁻¹"}, {"measurement": "Stoichiometry", "setting": "[1]", "result": 1.02}, {"measurement": "ΔS", "setting": "[1]", "result": -96.6, "unit": "cal mol^-1 K^-1"}]}, {"binder": "B2", "values": [{"measurement": "Ka", "setting": "[1]", "result": "1.65e+06", "unit": "M⁻¹"}, {"measurement": "Stoichiometry", "setting": "[1]", "result": 0.99}, {"measurement": "ΔS", "setting": "[1]", "result": -102, "unit": "cal mol^-1 K^-1"}]}, {"binder": "B3", "values": [{"measurement": "binding result", "setting": "[2]", "result": "no binding"}]}]}
